Laboratory results published in PMC4937337.

Tested on: nsp1β;PCBP2 (PRRSV (SD01-08)?;human)
Experiment: EMSA
Conditions: EMSA: 10 mM Hepes pH 7.6, 150 mM KCl, 2 mM MgCl2, 1 mM DTT, 0.5 mM ATP, 5% glycerol, 100 µg/ml porcine tRNA, RNase inhibitor; 10 nM RNA; 30°C 10 min (room …)

Question: Which Kd does the source give for PRRSV -2/-1 PRF RNA wt (58 nt) here?
Answer: 130 nM
